In US20200102389A1 (Hoffmann-La Roche, published 2020):

B1: HLA-G-0032 (antibody, V domains shown)
VH: QVQLQQSGAELVKPGSSVKISCKASGYSFPSYDMHWIKQQPGNGLEWIGWIYPGNGNTKYNQKFNGKASLTADKSSSTAYMQLSSLTSEDSAVYFCAKPTVATRYNWFAYWGQGTLVTVSS
VL: QIVLTQSPALMSASPGEKVTMTCSASSSVNYMHWYQQKPRSSPKPWIYLTSNLASGVPARFSGSGSGTSYSLTISTMEAEDAATYYCQQWSSNLPITFGSGTKLEIK
B2: HLA-G-0037 (antibody, V domains shown)
VH: QVQLKESGPGLVQPSQTLSLTCSVSGFSLTTYSVSWVRQPPGKGLEWIGAIWSGGSTDYNSALKSRLRISRDTSKSQVLLKMNSLQTEDRAMYFCVRMNNKFGYWYFDLWGPGTMVTVSS
VL: DTVLTQSPTLAVSPGEKITISCRASETVSTMLHWYQQKPGQQPKLLISLASHLESGVPARFTGSGSGTDFTLTIDPVEADDTATYYCQQTWNDPLTFGSGTKLEIK
B3: HLA-G-0033 (antibody, V domains shown)
VH: EVQLVETGGGLVQSGRSLKLSCVASGFTFNDYWMTWTRQAPGKGLEWVASITNSGGRTYYLDSVRGRFTISRDDAQNTLYLQMNSLRSEDTATYYCTKERIYLTAYWFFDFWGPGTMVTVSS
VL: DTILTQSPALAVSPGERVTISCRASESVSTLIHWYQQKPGQRPKLLIYLASHLESGVPARFSGSGSGTDFTLTIDPVEADDTATYYCQQSWNEPRTFGGGTKLELK

Columns and labels:
[1] = biological target: T1, recombinant soluble human HLA-G β2M MHC class I complex, dimer (human); test: competition ELISA, immobilised HLA-G dimer, antibody titrated, competitor c-myc ILT4
T1 construct: also called HLA-G Dimer; fraction A9
Experimental: (§1) The ELISA was set up by coating the biotinylated antigen wt HLA-G to strepdavidin plates. After incubation and washing steps, the respective antibodies were bound in a concentration range from 8-0 μg in 1:3 dilution steps. C-myc tagged ILT-2 or -4 receptor was added to the HLA-G-antibody complexes. After incubation and washing steps, detection of bound receptor was carried out by anti-cmyc-antibody-POD conjugates. IC50 values were determined from the resulting inhibition curves at the antibody concentrations generating the half-maximal inhibition. In case of the non-biotinylated HLA-G dimer and trimer antigens, immobilization was carried out by random coating on assay plates.

[2] = biological target: T2, recombinant soluble human HLA-G β2M MHC class I complex, monomer (human); test: competition ELISA, immobilised biotinylated wt HLA-G, competitor c-myc ILT2
T2 construct: His tagged; also called HLA-G-0003
Experimental: Streptavidin coated plates (Nunc, MicroCoat #11974998001) were coated with 25 μl/well biotinylated human wt HLA-G at a concentration of 500 ng/ml and incubated at 4° C. overnight. After washing (3×90 μl/well with PB ST-buffer) 25 μl anti-HLA-G samples were added in decreasing concentrations starting at 8 μg/ml, then diluted in 1:3 steps and incubated 1 h at RT. After washing (3×90 μl/well with PBST-buffer) 25 μl/well c-myc-tagged recombinant ILT-2 receptor was added at a concentration of 150 ng/ml and incubated for 1 h at room temperature. After washing (3×90 μl/well with PBST-buffer) 25 μl/well goat-anti-c-myc-POD (Bethyl #A190-104P 1:7000 in OSE) was added and incubated at RT for 1 h on a shaker. After washing (6×90 μl/well with PBST-buffer), 25 μl/well TMB substrate (Roche, 11835033001) was added and incubated until OD 2-3. Measurement took place on a Tecan Safire 2 instrument at 370/492 nm
as §1

[3] = biological target: T3, modified human HLA-G β2M MHC class I complex (HLA-G specific amino acids replaced by HLA-A consensus amino … (human)); test: SPR (Biacore T200), antibody captured, HLA-G complex injected
T3 construct: also called degrafted HLA-G

[4] = biological target: T3, modified human HLA-G β2M MHC class I …; test: SPR (Biacore T200), antibody captured via anti-Fc, degrafted HLA-G complex injected, 25 C, 1:1 fit
Experimental: Binding kinetics of anti-HLA-G antibodies to human HLA-G, human HLA-G degrafted and human HLA-A2 were investigated by surface plasmon resonance using a BIACORE T200 instrument (GE Healthcare). All experiments were performed at 25° C. using PBS Buffer (pH 7.4+0.05% Tween20) as running buffer and PBS Buffer (+0.1% BSA) as dilution buffer. Anti-human Fc (JIR009-005-098, Jackson) or anti-rat Fc (JIR112-005-071, Jackson) or anti-Mouse Fc (JIR115-005-071, Jackson) antibodies were immobilized on a Series S CM5 Sensor Chip (GE Healthcare) at pH 5.0 by using an amine coupling kit supplied by GE Healthcare. Anti-HLA-G antibodies were captured on the surface leading to a capturing response of 50-200 RU. HLA-G molecules were injected for 180 s at 30 μl/min with concentrations from 2.5 up to 800 nM (2×1:2 and 4×1:3 dilution series) onto the surface (association phase). The dissociation phase was monitored for 300-600 sec by washing with running buffer. […] Bulk refractive index differences were corrected by subtracting the response obtained from a mock surface. Blank injections were subtracted (double referencing). The derived curves were fitted to a 1:1 Langmuir binding model using the BIAevaluation software.
The above table summarizes the antibody affinities and t1/2 values against wt and degrafted HLA-G as assessed by Surface plasmon resonance (Biacore) analysis. Binding kinetics of anti-HLA-G antibodies to human HLA-G, human HLA-G degrafted and human HLA-A2 were investigated by surface plasmon resonance using a BIACORE T200 instrument (GE Healthcare). All experiments were performed at 25° C. using PBS Buffer (pH 7.4+0.05% Tween20) as running buffer and PBS Buffer (+0.1% BSA) as dilution buffer. Anti-human Fc (JIR009-005-098, Jackson) or anti-rat Fc (JIR112-005-071, Jackson) or anti-Mouse Fc (JIR115-005-071, Jackson) antibodies were immobilized on a Series S CM5 Sensor Chip (GE

Row | Binder | IC50 [1] | % inh. ILT2 (3 µg/ml antibody) [2] | binding result [3] | Kd [4] | koff [4] | kon [4] | t ½ [4]
1 | B1 | 50.3 nM | 86.8% | no binding (tested: 2.5 up to 800 nM) | – | – | – | –
2 | B2 | – | 82.9% | – | 2120 nM | 0.116 s⁻¹ | 54700 M⁻¹ s⁻¹ | 6 s
3 | B3 | 31.3 nM | 85.3% | – | 3.62 nM | 0.0345 s⁻¹ | 9.54e+06 M⁻¹ s⁻¹ | 18 s
